This note sets out measurements from the supplement of paper PMC10567573.

This data set in a line: protein stability index of a GFP-peptide fusion (GPS, HEK-293T) (PSI 1-6); higher = more stable.
Where [1] appears, read: treatment: DMSO, c terminus: a fixed tail appended.
[2] abbreviates: treatment: MLN4924 1 uM, 8 h, c terminus: a fixed tail appended.

± gives the standard deviation.
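Note: 24-mer peptide tiles fused after GFP, lentivirally expressed, FACS-sorted into six equal bins by GFP/DsRed ratio, decoded by Illumina sequencing, PSI is the read-weighted mean bin number.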

With PDEGSDLFYDDYYEDGEVEEEADS [CDC34], the protein stability index was determined as 5.36 ± 0.32 under setting [1] and 5.66 ± 0.25 under setting [2].

PDKESMYYPRVQHYRELLDSLPMD [GDAP1]: the protein stability index reads like this: under setting [1], 3.38 ± 0.23; under setting [2], 3.48 ± 0.35.

PDVVVRSFMTWLRSYIKLFQAPCQ [MED27] gave a protein stability index under setting [1] of 2.06 ± 0.19 and a protein stability index under setting [2] of 2.12 ± 0.28.

Regarding PEAAAAQLRATAGSLILPPGPGGT [FCHO1], the protein stability index by setting is: under setting [1], 4.26 ± 0.41; under setting [2], 4.26 ± 0.53.

Regarding PEASHLRFRRFRFQEAAGPREALS [ZNF263], the protein stability index came to 3.15 ± 0.42 under setting [1] and 3.31 ± 0.51 under setting [2].

Take PEVEVQVKRRRTASLSNQECQLYP [SNURF]: the protein stability index under setting [1] was found to be 4.77 ± 0.2 and the protein stability index under setting [2] amounted to 4.84 ± 0.17.

Regarding PEYREWNPELIKPKKLLNPVKASR [FAM107A], the protein stability index was 3.89 ± 0.13 under setting [1] and 4.09 ± 0.39 under setting [2].

With PGGPGAMTESLEASEFLEQSMSQT [RSPH3], the protein stability index is 5.27 ± 0.28 under setting [1] and 5.16 ± 0.17 under setting [2].

In the case of PGNPSLHSRFVELSEAYRVLSREQ [DNAJC4], the protein stability index runs as follows: under setting [1], 3.68 ± 0.44; under setting [2], 3.81 ± 0.21.

For PGPGSGPGSGPGHGSGSHPGPASG [SPAG8], the protein stability index by setting is: under setting [1], 5.08 ± 0.3; under setting [2], 4.97 ± 0.26.

As for PGSQTAVKNSNRYDVEMTDELVGL [FBXO34], the protein stability index by setting is: under setting [1], 4.98 ± 0.12; under setting [2], 4.93 ± 0.27.

For PHDRSQGDWAPPPEGGMEQALAGA [ZNF263], the protein stability index reads like this: under setting [1], 4.85 ± 0.26; under setting [2], 4.83 ± 0.31.

For the sequence PHQREKIDKEIELHRILHHKHVVQ [PLK2], the protein stability index runs as follows: under setting [1], 3.48 ± 0.19; under setting [2], 3.73 ± 0.34.

For the sequence PHVCSLCGKAFYKKYRLTEHERAH [ZNF649], the protein stability index was 4.54 ± 0.24 under setting [1] and 4.66 ± 0.55 under setting [2].

As to PIHTIILNPHVHLVGDDAACIAYI [CAMK2D], the protein stability index reads like this: under setting [1], 2 ± 0.45; under setting [2], 3.12 ± 1.6.

For the sequence PIRSRRALPPLRTRSKSDPVLHPS [FAM189A2], the protein stability index runs as follows: under setting [1], 4.9 ± 0.17; under setting [2], 4.94 ± 0.16.

In the case of PLHAPEAYFPYFKKHNVTAVVRLN [CDC14A], the protein stability index came to 2.17 ± 0.094 under setting [1] and 2.08 ± 0.37 under setting [2].

For the sequence PLLHKDSASLEVVKKDHVALQVPR [CBY2], the protein stability index is, setting by setting: under setting [1], 4.31 ± 0.095; under setting [2], 4.3 ± 0.49.

With PLRPLLGFRESDSAKPASLRLLQH [C6orf223], the protein stability index by setting is: under setting [1], 3.41 ± 0.39; under setting [2], 3.6 ± 0.27.

Regarding PMDVYETGIEYIVAQGPTNQGLNV [ADAMTSL2], the protein stability index under setting [1] is 3.19 ± 0.68 and the protein stability index under setting [2] was found to be 3.54 ± 0.39.

With PMMKLKRHFVAQKYKKQIDHMYH [ACSBG2], the protein stability index is 2.7 ± 0.32 (treatment: DMSO, c terminus: native) and 2.75 ± 0.32 (treatment: MLN4924 1 uM, 8 h, c terminus: native).

Take PMNRRNILVMKHNYSQDAADACDI [NETO1]: the protein stability index is, setting by setting: under setting [1], 3.59 ± 0.11; under setting [2], 3.8 ± 0.27.

PNPPTLQEAGLSHTEVLFVQDLTD [FAF2]: the protein stability index runs as follows: under setting [1], 4.54 ± 0.27; under setting [2], 4.64 ± 0.16.

Take PNRFLRGHRPPPARSGHRCVADNT [KLHDC10]: the protein stability index amounted to 4.04 ± 0.2 under setting [1] and 4.32 ± 0.34 under setting [2].

On to PNYLANPAFPFIYTPTAEDSAQMQ [ANKRD40], for which the protein stability index by setting is: under setting [1], 3.85 ± 0.28; under setting [2], 4.08 ± 0.26.

With PPETSLPYKWVVEAANLLIPAVGS [MYBL2], the protein stability index reads like this: under setting [1], 2.41 ± 0.42; under setting [2], 2.27 ± 0.29.

Regarding PPHREGEAAGGDHETESTSDKETD [CDS1], the protein stability index by setting is: under setting [1], 5.67 ± 0.31; under setting [2], 5.58 ± 0.57.

Consider PPHRRRLLFACSPPPASQPVVKAL [CDC25A], for which the protein stability index was determined as 2.64 ± 0.22 under setting [1] and 2.98 ± 0.1 under setting [2].

Take PPKKPSNWRRKHEEFIATIRAAKG [ZC2HC1A]: the protein stability index is 3.65 ± 0.15 under setting [1] and 3.82 ± 0.14 under setting [2].

PPQLRPGAPTSLQTEPQDRSPAPM [BCL2L11] gave a protein stability index under setting [2] of 5.18 ± 0.077.

Regarding PQKSLFFHHIPSTCQRVNGIKVQN [SLC19A2], the protein stability index under setting [1] was determined as 2.61 ± 0.17 and the protein stability index under setting [2] is 2.78 ± 0.27.

As to PQYAERLLSGAFKKRRLPPVHIHP [FOXJ1], the protein stability index turned out to be 2.76 ± 0.22 under setting [1] and 2.9 ± 0.1 under setting [2].

Take PRGQEGSRQDKPLSPAGSSQEAAD [YJU2B]: the protein stability index by setting is: under setting [1], 5.54 ± 0.079; under setting [2], 5.48 ± 0.2.

As for PRSTVRQKVASNHSPFSSESRALS [TBX5], the protein stability index by setting is: under setting [1], 4.11 ± 0.25; under setting [2], 4.15 ± 0.19.

Regarding PSLGPALSTGPRGLCAMPQTGDAF [VENTX], the protein stability index reads like this: under setting [1], 3.64 ± 0.089; under setting [2], 3.6 ± 0.17.

Regarding PSNFLEIDVSNPQTVGVGRGRFTT [SNX3], the protein stability index reads like this: under setting [1], 3.84 ± 0.29; under setting [2], 3.8 ± 0.59.

In the case of PSTYGGGLSVSSRFSSGGACGLGG [KRT16], the protein stability index amounted to 3.21 ± 0.21 under setting [1] and 3.44 ± 0.2 under setting [2].

Turning to PSVPCTPAPQVGTQIRTITEEIRD [KRT36], the protein stability index was 5.07 ± 0.36 under setting [1] and 5.22 ± 0.24 under setting [2].

As to PTHLSNGQMSTPETPQPSPPGGSG [HNF4A], the protein stability index amounted to 5.15 ± 0.15 under setting [1] and 4.98 ± 0.24 under setting [2].

For the sequence PTMHLESPALQVMGPAQEAPVAEA [ZNF449], the protein stability index was 5.22 ± 0.17 under setting [1] and 5.21 ± 0.07 under setting [2].

On to PVENFFVKCNGALINTSDTVQHGA [SDE2], for which the protein stability index amounted to 3.07 ± 0.12 under setting [1] and 3.08 ± 0.26 under setting [2].

For PVFNAMFEHEMEESKKNRVEINDL [SPOPL], the protein stability index is, setting by setting: under setting [1], 4.26 ± 0.32; under setting [2], 4.69 ± 0.21.

Consider PVIEELTNAGFLQTESELQELSEV [FAN1], for which the protein stability index runs as follows: under setting [1], 4.87 ± 0.1; under setting [2], 4.92 ± 0.16.

As for PVNPELTAGPITGLVYRLNRFRVE [TRIM43], the protein stability index is 2.71 ± 0.29 under setting [1] and 2.85 ± 0.33 under setting [2].

In the case of PVPILEKLPLQIDCLAAWEEWLLV [VPS39], the protein stability index turned out to be 2.24 ± 0.19 under setting [1] and 2.18 ± 0.27 under setting [2].

Sequence PVSMEMDNHMSDKDESCYDNAEAA [INTS3] came in with a protein stability index under setting [1] of 5.53 ± 0.36 and a protein stability index under setting [2] of 5.53 ± 0.23.

As to PVTQIGFEAPPLQGQAAAPASGSG [TRIM55], the protein stability index by setting is: under setting [1], 5.14 ± 0.42; under setting [2], 5.22 ± 0.14.

With PYKWVVEAANLLIPAVGSSLSEAL [MYBL2], the protein stability index by setting is: under setting [1], 2.88 ± 0.32; under setting [2], 2.63 ± 0.67.

As for QAQGARAGGSARRPDTGDDAAGHG [GMCL1], the protein stability index stood at 5.41 ± 0.4 under setting [1] and 5.57 ± 0.35 under setting [2].

Take QARQFRTFHHPTYGSCYTVDGVWT [SCNN1D]: the protein stability index runs as follows: under setting [1], 2.21 ± 0.19; under setting [2], 2.3 ± 0.2.

For QAWGSMLEVPAGSRLNLTGLGYFS [CCDC3], the protein stability index stood at 2.35 ± 0.3 under setting [1] and 1.79 ± 0.2 under setting [2].

For the sequence QCANKVLQHMKAVQADQERERQRR [LRRC59], the protein stability index by setting is: under setting [1], 3.93 ± 0.4; under setting [2], 4.17 ± 0.18.

For the sequence QDDLTVVLNEEGICTQKCALNWTD [VPS39], the protein stability index reads like this: under setting [1], 4.04 ± 0.49; under setting [2], 4 ± 0.67.
